Experimental data reported in patent publication US20200199204A1 (UNITED STATES OF AMERICA AS REPRESENTED BY THE SECRETARY …, published 2020).

Legend:
Assay in all cases: cell-based or functional assay
HIV-1 Env of THRO.18 = HIV-1 Env of THRO.18 (HIV-1)
HIV-1 Env of BG505.w6m = HIV-1 Env of BG505.w6m (HIV-1)
HIV-1 Env of 0260.v5.c36 = HIV-1 Env of 0260.v5.c36 (HIV-1)
HIV-1 Env of 191821.E6.1 = HIV-1 Env of 191821.E6.1 (HIV-1)
HIV-1 Env of 96ZM651.02 = HIV-1 Env of 96ZM651.02 (HIV-1)
HIV-1 Env of DU422.01 = HIV-1 Env of DU422.01 (HIV-1)
HIV-1 Env of RHPA.7 = HIV-1 Env of RHPA.7 (HIV-1)
HIV-1 Env of ZM214.15 = HIV-1 Env of ZM214.15 (HIV-1)
HIV-1 Env of WITO.33 = HIV-1 Env of WITO.33 (HIV-1)
HIV-1 Env of Q168.a2 = HIV-1 Env of Q168.a2 (HIV-1)
HIV-1 Env of Q842.d12 = HIV-1 Env of Q842.d12 (HIV-1)
HIV-1 Env of UG037.8 = HIV-1 Env of UG037.8 (HIV-1)
HIV-1 Env of 6535.3 = HIV-1 Env of 6535.3 (HIV-1)
HIV-1 Env of Q259.d2.17 = HIV-1 Env of Q259.d2.17 (HIV-1)
HIV-1 Env of MB201 = HIV-1 Env of MB201 (HIV-1)
HIV-1 Env of CAP210.E8 = HIV-1 Env of CAP210.E8 (HIV-1)
HIV-1 Env of REJO.67 = HIV-1 Env of REJO.67 (HIV-1)
HIV-1 Env of Q769.d22 = HIV-1 Env of Q769.d22 (HIV-1)
HIV-1 Env of KER2008.12 = HIV-1 Env of KER2008.12 (HIV-1)
HIV-1 Env of DU172.17 = HIV-1 Env of DU172.17 (HIV-1)
HIV-1 Env of Q23.17 = HIV-1 Env of Q23.17 (HIV-1)
HIV-1 Env of RW020.2 = HIV-1 Env of RW020.2 (HIV-1)
HIV-1 Env of ZM109.4 = HIV-1 Env of ZM109.4 (HIV-1)
HIV-1 Env of CAP256.PI = HIV-1 Env of CAP256.PI (HIV-1)
HIV-1 Env of MB539.2B7 = HIV-1 Env of MB539.2B7 (HIV-1)
HIV-1 Env of CM244.ec1 = HIV-1 Env of CM244.ec1 (HIV-1)
HIV-1 Env of TRO.11 = HIV-1 Env of TRO.11 (HIV-1)
HIV-1 Env of SC422.8 = HIV-1 Env of SC422.8 (HIV-1)
HIV-1 Env of CAP256.SU = HIV-1 Env of CAP256.SU (HIV-1)
HIV-1 Env of ZM249.1 = HIV-1 Env of ZM249.1 (HIV-1)
HIV-1 Env of CAP244.D3 = HIV-1 Env of CAP244.D3 (HIV-1)
HIV-1 Env of CAP45.G3 = HIV-1 Env of CAP45.G3 (HIV-1)
HIV-1 Env of AC10.29 = HIV-1 Env of AC10.29 (HIV-1)
HIV-1 Env of Q461.e2 = HIV-1 Env of Q461.e2 (HIV-1)
HIV-1 Env of PVO.04 = HIV-1 Env of PVO.04 (HIV-1)
HIV-1 Env of QH0692.42 = HIV-1 Env of QH0692.42 (HIV-1)
HIV-1 Env of CAAN.A2 = HIV-1 Env of CAAN.A2 (HIV-1)
HIV-1 Env of TRJO.58 = HIV-1 Env of TRJO.58 (HIV-1)
HIV-1 Env of 6405.v4.c34 = HIV-1 Env of 6405.v4.c34 (HIV-1)
HIV-1 Env of DU156.12 = HIV-1 Env of DU156.12 (HIV-1)
HIV-1 Env of C1080.c3 = HIV-1 Env of C1080.c3 (HIV-1)
HIV-1 Env of ZM135.10a = HIV-1 Env of ZM135.10a (HIV-1)
HIV-1 Env of ZM197.7 = HIV-1 Env of ZM197.7 (HIV-1)
HIV-1 Env of KER2018.11 = HIV-1 Env of KER2018.11 (HIV-1)
HIV-1 Env of 3016.V5.c36 = HIV-1 Env of 3016.V5.c36 (HIV-1)
HIV-1 Env of ZM53.12 = HIV-1 Env of ZM53.12 (HIV-1)
HIV-1 Env of ZM233.6 = HIV-1 Env of ZM233.6 (HIV-1)

B1: CAP256-VRC26.08 (antibody, V domains shown)
VH: EVQLVESGGGVVQPGRSLTLSCAASQFTFSNYGMHWVRQAPGKGLEWVASVSNDGTKKYHGDSVWGRFTISRDNSKNTLFLQMSSLRAEDTAVYFCVRDQREDECEEWWSDYYDFGRELPCRKFRGLGLAGIFDIWGHGTMVTVSS
VL: QSALTQPPSVSAAPGQKVTISCSGNSSNIGNNFVSWYQQVPGTAPKLLLYETYRRPSGIPDRFSGSKSGTSATLAITGLQTGDEADYYCTVWGVRKGVGAVFGTGTKVTVLG
HIV-1 Env of THRO.18
  neutralization IC50: > 50 µg/mL
HIV-1 Env of BG505.w6m
  neutralization IC50: 0.143 µg/mL
HIV-1 Env of 0260.v5.c36
  neutralization IC50: > 50 µg/mL
HIV-1 Env of 191821.E6.1
  neutralization IC50: 0.37 µg/mL
HIV-1 Env of 96ZM651.02
  neutralization IC50: 2.82 µg/mL
HIV-1 Env of DU422.01
  neutralization IC50: 0.008 µg/mL
HIV-1 Env of RHPA.7
  neutralization IC50: > 50 µg/mL
HIV-1 Env of ZM214.15
  neutralization IC50: > 50 µg/mL
HIV-1 Env of WITO.33
  neutralization IC50: > 50 µg/mL
HIV-1 Env of Q168.a2
  neutralization IC50: 0.256 µg/mL
HIV-1 Env of Q842.d12
  neutralization IC50: 40.4 µg/mL
HIV-1 Env of UG037.8
  neutralization IC50: > 50 µg/mL
HIV-1 Env of 6535.3
  neutralization IC50: > 50 µg/mL
HIV-1 Env of Q259.d2.17
  neutralization IC50: 0.009 µg/mL
HIV-1 Env of MB201
  neutralization IC50: > 50 µg/mL
HIV-1 Env of CAP210.E8
  neutralization IC50: 0.006 µg/mL
HIV-1 Env of REJO.67
  neutralization IC50: > 50 µg/mL
HIV-1 Env of Q769.d22
  neutralization IC50: > 50 µg/mL
HIV-1 Env of KER2008.12
  neutralization IC50: > 50 µg/mL
HIV-1 Env of DU172.17
  neutralization IC50: > 50 µg/mL
HIV-1 Env of Q23.17
  neutralization IC50: 13.3 µg/mL
HIV-1 Env of RW020.2
  neutralization IC50: > 50 µg/mL
HIV-1 Env of ZM109.4
  neutralization IC50: > 50 µg/mL
HIV-1 Env of CAP256.PI
  neutralization IC50: > 50 µg/mL
HIV-1 Env of MB539.2B7
  neutralization IC50: 31.7 µg/mL
HIV-1 Env of CM244.ec1
  neutralization IC50: 1.09 µg/mL
HIV-1 Env of TRO.11
  neutralization IC50: > 50 µg/mL
HIV-1 Env of SC422.8
  neutralization IC50: > 50 µg/mL
HIV-1 Env of CAP256.SU
  neutralization IC50: 0.003 µg/mL
HIV-1 Env of ZM249.1
  neutralization IC50: 0.076 µg/mL
HIV-1 Env of CAP244.D3
  neutralization IC50: > 50 µg/mL
HIV-1 Env of CAP45.G3
  neutralization IC50: 4.69 µg/mL
HIV-1 Env of AC10.29
  neutralization IC50: > 50 µg/mL
HIV-1 Env of Q461.e2
  neutralization IC50: 0.969 µg/mL
HIV-1 Env of PVO.04
  neutralization IC50: 11.8 µg/mL
HIV-1 Env of QH0692.42
  neutralization IC50: > 50 µg/mL
HIV-1 Env of CAAN.A2
  neutralization IC50: > 50 µg/mL
HIV-1 Env of TRJO.58
  neutralization IC50: > 50 µg/mL
HIV-1 Env of 6405.v4.c34
  neutralization IC50: > 50 µg/mL
HIV-1 Env of DU156.12
  neutralization IC50: 0.059 µg/mL
HIV-1 Env of C1080.c3
  neutralization IC50: 0.012 µg/mL
HIV-1 Env of ZM135.10a
  neutralization IC50: > 50 µg/mL
HIV-1 Env of ZM197.7
  neutralization IC50: 0.008 µg/mL
HIV-1 Env of KER2018.11
  neutralization IC50: 0.003 µg/mL
HIV-1 Env of 3016.V5.c36
  neutralization IC50: 0.013 µg/mL
HIV-1 Env of ZM53.12
  neutralization IC50: 0.004 µg/mL

B2: CAP256-VRC26.09 (antibody, V domains shown)
VH: EVQLVESGGGVVQPGRSLTLSCAASQFNFANYGMHWVRQAPGKGLEWVASISNDGTKKYHEESVWGRFTISKDNSKSTLFLQMNSLRIEDTALYFCVKDQREDECEEWWSDYYDFGRELPCRKSRGLGLAGIFDMWGHGTMVTVSS
VL: QSALTQPPSVSAAPGQKVTISCSGNSSNIGNNFVSWYQQLPGTAPKLLIYENNRRPSGIPDRFSGSKSGTSATLAISGLQTGDEADYWCAVWGVRRGAGAVFGAGTKVTVLG
HIV-1 Env of THRO.18
  neutralization IC50: > 50 µg/mL
HIV-1 Env of BG505.w6m
  neutralization IC50: 0.054 µg/mL
HIV-1 Env of 0260.v5.c36
  neutralization IC50: > 50 µg/mL
HIV-1 Env of 191821.E6.1
  neutralization IC50: 0.054 µg/mL
HIV-1 Env of 96ZM651.02
  neutralization IC50: 0.991 µg/mL
HIV-1 Env of DU422.01
  neutralization IC50: 0.023 µg/mL
HIV-1 Env of RHPA.7
  neutralization IC50: > 50 µg/mL
HIV-1 Env of ZM214.15
  neutralization IC50: 0.333 µg/mL
HIV-1 Env of WITO.33
  neutralization IC50: > 50 µg/mL
HIV-1 Env of Q168.a2
  neutralization IC50: 0.181 µg/mL
HIV-1 Env of Q842.d12
  neutralization IC50: 10.1 µg/mL
HIV-1 Env of UG037.8
  neutralization IC50: > 50 µg/mL
HIV-1 Env of 6535.3
  neutralization IC50: > 50 µg/mL
HIV-1 Env of Q259.d2.17
  neutralization IC50: 0.008 µg/mL
HIV-1 Env of MB201
  neutralization IC50: > 50 µg/mL
HIV-1 Env of CAP210.E8
  neutralization IC50: 0.002 µg/mL
HIV-1 Env of REJO.67
  neutralization IC50: > 50 µg/mL
HIV-1 Env of Q769.d22
  neutralization IC50: > 50 µg/mL
HIV-1 Env of KER2008.12
  neutralization IC50: > 50 µg/mL
HIV-1 Env of DU172.17
  neutralization IC50: > 50 µg/mL
HIV-1 Env of Q23.17
  neutralization IC50: 9.5 µg/mL
HIV-1 Env of RW020.2
  neutralization IC50: > 50 µg/mL
HIV-1 Env of ZM109.4
  neutralization IC50: > 50 µg/mL
HIV-1 Env of CAP256.PI
  neutralization IC50: > 50 µg/mL
HIV-1 Env of MB539.2B7
  neutralization IC50: 40.7 µg/mL
HIV-1 Env of CM244.ec1
  neutralization IC50: 0.105 µg/mL
HIV-1 Env of TRO.11
  neutralization IC50: > 50 µg/mL
HIV-1 Env of SC422.8
  neutralization IC50: > 50 µg/mL
HIV-1 Env of CAP256.SU
  neutralization IC50: 0.002 µg/mL
HIV-1 Env of ZM249.1
  neutralization IC50: 0.01 µg/mL
HIV-1 Env of CAP244.D3
  neutralization IC50: > 50 µg/mL
HIV-1 Env of CAP45.G3
  neutralization IC50: 16 µg/mL
HIV-1 Env of AC10.29
  neutralization IC50: > 50 µg/mL
HIV-1 Env of Q461.e2
  neutralization IC50: 0.705 µg/mL
HIV-1 Env of ZM233.6
  neutralization IC50: 0.001 µg/mL
HIV-1 Env of PVO.04
  neutralization IC50: > 50 µg/mL
HIV-1 Env of QH0692.42
  neutralization IC50: > 50 µg/mL
HIV-1 Env of CAAN.A2
  neutralization IC50: > 50 µg/mL
HIV-1 Env of TRJO.58
  neutralization IC50: > 50 µg/mL
HIV-1 Env of 6405.v4.c34
  neutralization IC50: > 50 µg/mL
HIV-1 Env of DU156.12
  neutralization IC50: 0.016 µg/mL
HIV-1 Env of C1080.c3
  neutralization IC50: 0.019 µg/mL
HIV-1 Env of ZM135.10a
  neutralization IC50: > 50 µg/mL
HIV-1 Env of ZM197.7
  neutralization IC50: 0.011 µg/mL
HIV-1 Env of KER2018.11
  neutralization IC50: 0.002 µg/mL
HIV-1 Env of 3016.V5.c36
  neutralization IC50: 0.004 µg/mL
HIV-1 Env of ZM53.12
  neutralization IC50: 0.002 µg/mL
